Where no end group is shown, it is not given here.
What was measured:
[1] = tested on: mouse small intestine closed loop; test: Promotion of insulin absorption by co-administration of cyclic peptide, mouse small intestine closed loop, blood glucose level; format: in vivo; conditions: DNPGNET 5 mM co-administered with insulin 10 IU/kg into mouse small intestine loop, versus insulin alone, over 60 minutes
Procedure: The influence on insulin absorption by co-administration of the cyclic peptide of the present invention was studied by measuring the blood glucose level.
We asked GenScript Japan Inc. to synthesize a cyclic peptide shown in FIG. 4B containing a sequence of DNPGNET (SEQ TD No: 5).
A peptide was prepared by using 100 μL of a hot HBSS solution so that the concentration of insulin was 10 IU/kg and the concentration of DNPGNET was 5 mM and incubated at 37° C. for 1 hour, and the resultant was used in the co-administration group. For the insulin single administration group, a sample was prepared by using 100 μL of a hot HBSS solution so that the concentration of insulin was 10 IU/kg and incubated at 37° C. for 1 hour, and the resultant peptide was used. In the same manner as in Example 6, a mouse small intestine closed loop was produced, then, the DNPGNET+insulin solution or the insulin solution prepared previously was administered into the loop. The time of administration was 0 min, and the blood glucose level was measured over a time of 60 minutes by using ACCU-CHEK (registered trademark) Aviva Nano.

[2] = tested on: Caco-2 cells; test: Influence on tight junction of Caco-2 cells (TEER, Millicell ERS-2); format: cell-based, human; conditions: Caco-2 cells treated for 24 hours, 10 μM
Procedure: For the influence on tight junction, Caco-2 cells were cultured in Transwell, then, 2 mL of 0-10 μM peptide DNP was added at the apical (AP) side, and 1, 2, 3, 6, 12 and 24 hours after addition, the electric resistance value (TEER) was measured using Millicell ERS-2.
(§1) Caco-2 cells were treated for 24 hours using the cyclic peptide DNP having highest permeability at a concentration of 10 μM, but weakening of cell toxicity and tight junction was not observed.

[3] = tested on: Caco-2 cells; test: Cell toxicity to Caco-2 cells (Cell Counting kit 8); format: cell-based, human; conditions: Caco-2 cells treated for 24 hours, 10 μM
Procedure: For cell toxicity, 100 μL of 0-10 μM DNP peptide was added to Caco-2 cells cultured in a 96-well plate, and the cell survival rates after 1, 6 and 24 hours were measured using Cell Counting kit 8 (DOJINDO Laboratories).
as §1

[4] = tested on: Caco-2 cells; test: Competitive inhibition of DNP-presenting phage permeation through Caco-2 cells by synthetic unlabeled DNP peptide; format: cell-based, human; conditions: unlabeled DNP 10 μM
Procedure: The experiment of permeation using Caco-2 cells was conducted according to a report of Ohura et al. (J. Pharm. Sci. Vol 100, No. 9, 2011). Each phage stock was prepared by diluting with an HBSS buffer so as to give a concentration of 5×10^11 pfu/mL. Caco-2 cells placed in Transwell (manufactured by Coring) were cultured, and formation of sufficient tight junction was confirmed, then, Transwell was transferred to a new 6-well plate. To the apical (AP) side of the cell, 2 mL of the phage preparation liquid was added and incubated at 37° C. (this time point t=0 min). When reached each time point, Transwell was transferred to a new 6-well plate. The time point was 1, 3, 5, 10 and 30 min. The sample at the basal (BA) side at each time point was kept on ice. When reached 30 min, Transwell was transferred to a new 6-well plate, and the HBSS buffer at the AP side was aspirated, then, the cells were recovered into a centrifugal tube. The titre at the BA side and the titre in the supernatant at each time point were measured by qPCR. […]
The DNP-presenting phage permeating Caco-2 cells was measured in the presence or in the absence of the unlabeled DNP, in the same manner as in Example 1. […]

DNPGNET (also: cyclic peptide, mode of cyclisation not given here)
insulin absorption (blood glucose level) [1]: absorption of insulin was promoted | weakening of tight junction (TEER) [2]: not observed | cell toxicity [3]: not observed | competitive inhibition of DNP-presenting phage permeating Caco-2 cells [4]: competitive inhibition occurs

— patent publication US10736941B2, “Cell membrane-permeating peptide” (NATIONAL UNIVERSITY CORPORATION KUMAMOTO UNIVERSITY, priority 2015, dated 2020)
